# Test results taken from publication PMC8383480.
# Target: peptide probe (designed thiol-sensitive probe mimicking the substrate of the main protease)
# Assay: SPR
substance,measurement,value
main protease of SARS-Cov-2 (from UniProt P0DTD1) (enzyme),koff,0.182 s⁻¹
same,kon,1.03e+08 M⁻¹ s⁻¹
